In patent US20250019402A1 (MEDIZINISCHE UNIVERSITAT INNSBRUCK, published 2025):
[ ]: non-standard residue; d: D form. The star is where a group is joined. DOTA = O=C(O)CN1CCN(CC(=O)O)CCN(CC(=O)*)CCN(CC(=O)O)CC1; 1Nal = N[C@@H](Cc1cccc2ccccc12)C(=O)O; 2Nal = N[C@@H](Cc1ccc2ccccc2c1)C(=O)O; NMeF = CN[C@@H](Cc1ccccc1)C(=O)O; NMeNle = CCCC[C@H](NC)C(=O)O; HYNIC = NNc1ccc(C(=O)*)cn1

B1: DOTA-MGS10 (DOTA-DGlu-Tyr-Pro-Gly-Trp-(N-Me)Nle-Asp-1Nal-NH2) (peptide)
peptide: {DOTA}-[dE]YPGW[NMeNle]D[1Nal]-NH2
SMILES: CCCC[C@@H](C(=O)N[C@@H](CC(=O)O)C(=O)N[C@@H](Cc1cccc2ccccc12)C(N)=O)N(C)C(=O)[C@H](Cc1c[nH]c2ccccc12)NC(=O)CNC(=O)[C@@H]1CCCN1C(=O)[C@H](Cc1ccc(O)cc1)NC(=O)[C@@H](CCC(=O)O)NC(=O)CN1CCN(CC(=O)O)CCN(CC(=O)O)CCN(CC(=O)O)CC1
B2: DOTA-MGS4 (DOTA-DGlu-Ala-Tyr-Gly-Trp-(N-Me)Nle-Asp-(N-Me)Phe-NH2) (peptide)
peptide: {DOTA}-[dE]AYGW[NMeNle]D[NMeF]-NH2
SMILES: CCCC[C@@H](C(=O)N[C@@H](CC(=O)O)C(=O)N(C)[C@@H](Cc1ccccc1)C(N)=O)N(C)C(=O)[C@H](Cc1c[nH]c2ccccc12)NC(=O)CNC(=O)[C@H](Cc1ccc(O)cc1)NC(=O)[C@H](C)NC(=O)[C@@H](CCC(=O)O)NC(=O)CN1CCN(CC(=O)O)CCN(CC(=O)O)CCN(CC(=O)O)CC1
B3: DOTA-MGS8 (DOTA-DGlu-Pro-Tyr-Gly-Trp-(N-Me)Nle-Asp-1Nal-NH2) (peptide)
peptide: {DOTA}-[dE]PYGW[NMeNle]D[1Nal]-NH2
SMILES: CCCC[C@@H](C(=O)N[C@@H](CC(=O)O)C(=O)N[C@@H](Cc1cccc2ccccc12)C(N)=O)N(C)C(=O)[C@H](Cc1c[nH]c2ccccc12)NC(=O)CNC(=O)[C@H](Cc1ccc(O)cc1)NC(=O)[C@@H]1CCCN1C(=O)[C@@H](CCC(=O)O)NC(=O)CN1CCN(CC(=O)O)CCN(CC(=O)O)CCN(CC(=O)O)CC1
B4: DOTA-MGS9 (DOTA-DLys-Ala-Tyr-Gly-Trp-(N-Me)Nle-Asp-1Nal-NH2) (peptide)
peptide: {DOTA}-[dK]AYGW[NMeNle]D[1Nal]-NH2
SMILES: CCCC[C@@H](C(=O)N[C@@H](CC(=O)O)C(=O)N[C@@H](Cc1cccc2ccccc12)C(N)=O)N(C)C(=O)[C@H](Cc1c[nH]c2ccccc12)NC(=O)CNC(=O)[C@H](Cc1ccc(O)cc1)NC(=O)[C@H](C)NC(=O)[C@@H](CCCCN)NC(=O)CN1CCN(CC(=O)O)CCN(CC(=O)O)CCN(CC(=O)O)CC1
B5: DOTA-MGS5-2 (DOTA-DGlu-Ala-Tyr-Gly-Trp-(N-Me)Nle-Asp-2Nal-NH2) (peptide)
peptide: {DOTA}-[dE]AYGW[NMeNle]D[2Nal]-NH2
SMILES: CCCC[C@@H](C(=O)N[C@@H](CC(=O)O)C(=O)N[C@@H](Cc1ccc2ccccc2c1)C(N)=O)N(C)C(=O)[C@H](Cc1c[nH]c2ccccc12)NC(=O)CNC(=O)[C@H](Cc1ccc(O)cc1)NC(=O)[C@H](C)NC(=O)[C@@H](CCC(=O)O)NC(=O)CN1CCN(CC(=O)O)CCN(CC(=O)O)CCN(CC(=O)O)CC1

What follows are molecules tested against T1, human cholecystokinin-2 receptor (CCK2R) (human, UniProt P32239 1-447) (assay: cell-based or functional assay).
T1 sequence (looked up): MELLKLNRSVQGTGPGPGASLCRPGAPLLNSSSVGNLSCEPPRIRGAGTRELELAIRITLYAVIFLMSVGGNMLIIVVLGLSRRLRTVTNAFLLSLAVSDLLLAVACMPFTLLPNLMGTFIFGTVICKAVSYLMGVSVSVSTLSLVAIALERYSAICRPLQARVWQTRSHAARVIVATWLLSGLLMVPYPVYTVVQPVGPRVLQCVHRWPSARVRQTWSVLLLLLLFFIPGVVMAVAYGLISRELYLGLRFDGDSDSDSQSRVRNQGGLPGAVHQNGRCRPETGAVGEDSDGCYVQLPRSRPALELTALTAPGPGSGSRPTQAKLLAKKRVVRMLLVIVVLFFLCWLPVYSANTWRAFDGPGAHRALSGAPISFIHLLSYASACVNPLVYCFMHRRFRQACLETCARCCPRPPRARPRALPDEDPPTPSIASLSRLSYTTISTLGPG

Going from ^111In-DOTA-MG11 (peptide) to {DOTA}-[dE]YPGW[NMeNle]D[1Nal]-NH2 (also: DOTA coordinating 177Lu) [^177Lu-DOTA-MGS10], the cellular internalization after 2 h incubation on A431-CCK2R cells (% of total activity) rises from 29% to over 50%.

Compared with {DOTA}-[dE]AYPW[NMeNle]D[1Nal]-NH2 (also: DOTA coordinating 68Ga) [^68Ga-DOTA-MGS12], {DOTA}-[dE][dE][dE][dE][dE][dE]AYGWMDF-NH2 (also: DOTA coordinating 111In) [^111In-PP-F11] is lower in cellular internalization after 2 h incubation on A431-CCK2R cells (% of total activity): about 40% for the first, under 24% for the second.

First: {DOTA}-[dE]AYGW[NMeNle]D[1Nal]-NH2 (also: DOTA coordinating 68Ga) [^68Ga-DOTA-MGS5]
Second: {DOTA}-[dE]AYGW[NMeNle]D[2Nal]-NH2 (also: DOTA coordinating 111In) [^111In-DOTA-MGS5-2]
The “cell uptake after 2 h incubation on A431-CCK2R cells (% of total activity)” value (“cell uptake … (% of total activity)” for short) of the first is higher: 54% for the first, 45% for the second.

First: {DOTA}-[dE][dE][dE][dE][dE][dE]AYGWMDF-NH2 (also: DOTA coordinating 177Lu) [^177Lu-PP-F11]
Second: {DOTA}-[dK]AYGW[NMeNle]D[1Nal]-NH2 (also: DOTA coordinating 111In) [^111In-DOTA-MGS9]
The “cell uptake … (% of total activity)” value of the first is lower: under 30% for the first, 37% for the second.

{DOTA}-[dE]AYGW[NMeNle]D[1Nal]-NH2 (also: DOTA coordinating 177Lu) [^177Lu-DOTA-MGS5] and {HYNIC}-[dE]AYGW[NMeNle]D[1Nal]-NH2 (also: HYNIC coordinating 99mTc, co-ligand not given here) [^99mTc-HYNIC-MGS5] are the same in “cell uptake … (% of total activity)” value: 63% for the first, 63% for the second.

{DOTA}-[dE]AYGW[NMeNle]D[1Nal]-NH2 (also: DOTA coordinating 111In) [^111In-DOTA-MGS5] was tested, and the “cell uptake … (% of total activity)” value was 68%.

The molecules below were run against human cholecystokinin-2 receptor (CCK2R) (human) (UniProt P32239) (assay: displacement of [125I]Tyr12-gastrin-I on A431-CCK2R cells, filter plates, 1 h RT).

“DOTA-MG11 ([1,4,7,10-tetraazacyclodocecan-1,4,7,10-tetraacetic acid^0, D-Glu^1, DesGlu^2-6] minigastrin) (peptide)” gave an IC50 of 0.9 nM.

These molecules were tested against T1, human cholecystokinin-2 receptor (CCK2R) in the same assay as above.
Procedure: Affinity for CCK2R was studied in A431 human epidermoid carcinoma cells stably transfected with the plasmid pCR3.1 containing the full coding sequence for the human CCK2R (A431-CCK2R) kindly provided by Dr. Luigi Aloj (Aloj L et al., J Nucl Med 2004, 45:485-494). […] Binding assays were carried out in 96-well filter plates (MultiScreenHTS-FB, Merck Group, Darmstadt, Germany) pretreated with 10 mM TRIS/139 mM NaCl PH 7.4 (2×250 μl). For the assay a number of 200,000-400,000 A431-CCK2R cells per well was prepared in 35mM HEPES buffer pH 7.4 containing 10 mM MgCl₂, 14 μM bacitracin and 0.5% BSA (a hypotonic solution disturbing the integrity of the cell membranes). […] Incubation was interrupted by filtration of the medium and rapid rinsing with ice-cold 10 mM TRIS/139 mM NaCl PH 7.4 (2×200 μl) and the filters were counted in the gamma-counter. Half maximal inhibitory concentration (IC50) values were calculated following nonlinear regression with Origin software (Microcal Origin 6.1, Northampton, MA) and a representative assay was chosen for comparison.

In order of rising IC50:
1. B1  0.9 nM
2. B2  1.2 nM
3. B3  1.6 nM
4. B5  1.6 nM
5. B4  1.8 nM
6. {DOTA}-[dE]AYGWMD[1Nal]-NH2 [DOTA-MGS1 (DOTA-DGlu-Ala-Tyr-Gly-Trp-Met-Asp-1Nal-NH2)]  1.9 nM
7. {HYNIC}-[dE]AYGW[NMeNle]D[1Nal]-NH2 [HYNIC-MGS5 (HYNIC-DGlu-Ala-Tyr-Gly-Trp-(N-Me)Nle-Asp-1Nal-NH2)]  6 nM

These molecules were tested against serum proteins (fresh human serum) (human) (assay: incubation in fresh human serum at 37 C (500 pmol/mL), Sephadex G-50 size-exclusion chromatography, gamma counting).

In order of rising Percentage of radioligand bound to serum proteins after 4 h incubation:
1. {DOTA}-[dE]AYGW[NMeNle]D[NMeF]-NH2 (also: DOTA coordinates 111In) [^111In-DOTA-MGS4 (^111In-DOTA-DGlu-Ala-Tyr-Gly-Trp-(N-Me)Nle-Asp-(N-Me)Phe-NH2)]  8.9%
2. {DOTA}-[dE]AYGWMD[1Nal]-NH2 (also: DOTA coordinates 111In) [^111In-DOTA-MGS1 (^111In-DOTA-DGlu-Ala-Tyr-Gly-Trp-Met-Asp-1Nal-NH2)]  20%
3. {DOTA}-[dK]AYGW[NMeNle]D[1Nal]-NH2 (also: DOTA coordinating 111In) [^111In-DOTA-MGS9]  26.6%
4. {DOTA}-[dE]AYGW[NMeNle]D[2Nal]-NH2 (also: DOTA coordinating 111In) [^111In-DOTA-MGS5-2]  31.7%
5. {DOTA}-[dE]AYGW[NMeNle]D[1Nal]-NH2 (also: DOTA coordinating 111In) [^111In-DOTA-MGS5]  41%
6. {DOTA}-[dE]AYPW[NMeNle]D[1Nal]-NH2 (also: DOTA coordinates 111In) [^111In-DOTA-MGS12]  41.2%
7. {DOTA}-[dE]PYGW[NMeNle]D[1Nal]-NH2 (also: DOTA coordinates 111In) [^111In-DOTA-MGS8]  44.5%
8. {DOTA}-[dE]YPGW[NMeNle]D[1Nal]-NH2 (also: DOTA coordinates 111In) [^111In-DOTA-MGS10]  56.7%

In order of rising Percentage of radioligand bound to serum proteins after 24 h incubation:
1. {DOTA}-[dE]AYGW[NMeNle]D[NMeF]-NH2 (also: DOTA coordinates 111In) [^111In-DOTA-MGS4 (^111In-DOTA-DGlu-Ala-Tyr-Gly-Trp-(N-Me)Nle-Asp-(N-Me)Phe-NH2)]  11.9%
2. {DOTA}-[dK]AYGW[NMeNle]D[1Nal]-NH2 (also: DOTA coordinating 111In) [^111In-DOTA-MGS9]  27.8%
3. {DOTA}-[dE]AYGWMD[1Nal]-NH2 (also: DOTA coordinates 111In) [^111In-DOTA-MGS1 (^111In-DOTA-DGlu-Ala-Tyr-Gly-Trp-Met-Asp-1Nal-NH2)]  28.8%
4. {DOTA}-[dE]AYGW[NMeNle]D[2Nal]-NH2 (also: DOTA coordinating 111In) [^111In-DOTA-MGS5-2]  34.6%
5. {DOTA}-[dE]AYGW[NMeNle]D[1Nal]-NH2 (also: DOTA coordinating 111In) [^111In-DOTA-MGS5]  44.3%
6. {DOTA}-[dE]AYPW[NMeNle]D[1Nal]-NH2 (also: DOTA coordinates 111In) [^111In-DOTA-MGS12]  45.9%
7. {DOTA}-[dE]PYGW[NMeNle]D[1Nal]-NH2 (also: DOTA coordinates 111In) [^111In-DOTA-MGS8]  52.8%
8. {DOTA}-[dE]YPGW[NMeNle]D[1Nal]-NH2 (also: DOTA coordinates 111In) [^111In-DOTA-MGS10]  53.4%
